± gives the uncertainty stated by the source.
Experiment: self-splicing fitness, log relative to wild type (ln ratio); higher = more splicing; Tetrahymena group I intron in knt gene, E. coli kanamycin selection, DiMSum; sequences stand for … in CUCUCU…GGAGGGAAAAGUUAUCAGGCAUGCACCUGGUAGCUAGUCUUUAAACCAAUAGAUUGCAUCGGUUUAAAAGGCAAGACCGUCAAAUUGCGGGAAAGGGGUCAACAGCCGUUCAGUACCAAGUCUCAGGGGAAACUUUGAGAUGGCCUUGCAAAGGGUAUGGUAAUAAGCUGACGGACAUGGUCCUAACCACGCAGCCAAGUCCUAAGUCAACAGAUCUUCUGUUGAUAUGGAUGCAGUUCACAGACUAAAUGUCGGUCGGGGAAGAUGUAUUCUUCUCAUAAGAUAUAGUCGGACCUCUCCUUAAUGGGAGCUAGCGGAUGAAGUGAUGCAACACUGGAGCCGCUGGGAACUAAUUUGUAUGCGAAAGUAUAUUGAUUAGUUUUGGAGUACUCGUGGUCG
Summary of the method: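 Six replicate transformations of E. coli BL21(DE3) with a pET-22b(+) library were grown overnight at 37°C or 30°C. The library randomised all eight P1ex-region intron nucleotides, the intron lying in the knt kanamycin-resistance gene, and plates were LB agar with or without 25 μg/mL kanamycin plus 100 μg/mL carbenicillin, 50 μM IPTG and 0.2% rhamnose. Pooled colonies were amplicon-sequenced on an Illumina HiSeq 2500, and fitness is the DiMSum error-weighted combination of wild-type-normalised replicate fold changes, kanamycin versus none.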

Row | Sequence | self-splicing fitness (ln) (30 °C) | self-splicing fitness (ln) (37 °C)
1 | ACAAAGCAAUAUUACGCUAA | -2.51 ± 0.13 | -1.14 ± 0.086
2 | GGAAAGCAAUAUUACGUUGC | -4.27 ± 0.35 | -2.2 ± 0.26
3 | CGCAAGCAAUAUUACGUCGG | -0.371 ± 0.061 | -0.192 ± 0.089
4 | CUUUAGCAAUAUUACGUCGA | – | -1.96 ± 0.48
5 | ACGGAGCAAUAUUACGGAAG | -4.44 ± 0.46 | -1.89 ± 0.46
6 | ACCAAGCAAUAUUACGAUUG | -2.86 ± 0.13 | -3.02 ± 0.16
7 | GAAAAGCAAUAUUACGAAUA | -1.57 ± 0.13 | -1.19 ± 0.1
8 | CUAAAGCAAUAUUACGGUCU | -3.74 ± 0.21 | -3.69 ± 0.29
9 | GAAAAGCAAUAUUACGCAUG | -1.12 ± 0.079 | -0.337 ± 0.1
10 | UAGCAGCAAUAUUACGGAGC | -2.95 ± 0.44 | -1.74 ± 0.49
11 | CACAAGCAAUAUUACGACGG | -0.279 ± 0.071 | 0.557 ± 0.083
12 | CAAAAGCAAUAUUACGCGCC | -2.04 ± 0.17 | -0.789 ± 0.19
13 | GUUGAGCAAUAUUACGUCAU | -2.26 ± 0.21 | -2.44 ± 0.38
14 | GGCGAGCAAUAUUACGUGUA | -2.41 ± 0.15 | -1.16 ± 0.14
15 | UGAGAGCAAUAUUACGAGUU | -3.31 ± 0.23 | -2.3 ± 0.34
16 | UAGAAGCAAUAUUACGAAAG | -1.97 ± 0.21 | -1.26 ± 0.18
17 | GUCCAGCAAUAUUACGUUCG | -1.26 ± 0.055 | -0.749 ± 0.079
18 | GUUGAGCAAUAUUACGUUCC | -1.13 ± 0.26 | -1.31 ± 0.34
19 | GGUAAGCAAUAUUACGAUCG | -0.894 ± 0.1 | 0.451 ± 0.17
20 | GCUUAGCAAUAUUACGGAUA | -2.7 ± 0.39 | -1.71 ± 0.31
21 | CACCAGCAAUAUUACGGGCU | -4.86 ± 0.2 | -2.8 ± 0.16
22 | UAUGAGCAAUAUUACGUUCG | -1.45 ± 0.091 | -0.169 ± 0.12
23 | GCUUAGCAAUAUUACGGAUC | -0.319 ± 0.092 | 0.437 ± 0.11
24 | UUGAAGCAAUAUUACGUACA | 0.247 ± 0.1 | 0.767 ± 0.14
25 | ACCGAGCAAUAUUACGGAUC | -3.86 ± 0.26 | -1.95 ± 0.2
26 | UAUCAGCAAUAUUACGCAGC | -2.17 ± 0.19 | -1.53 ± 0.18

Row | Sequence | self-splicing fitness (ln) (30 °C) | self-splicing fitness (ln) (37 °C)
27 | UCUUAGCAAUAUUACGCCGA | -2.03 ± 0.28 | -0.379 ± 0.38
28 | CCUGAGCAAUAUUACGGCAC | – | -2.23 ± 0.26
29 | AAAAAGCAAUAUUACGAACC | -1.53 ± 0.12 | -0.312 ± 0.18
30 | CGGCAGCAAUAUUACGUGCG | -3 ± 0.16 | -2.54 ± 0.16
31 | GCCCAGCAAUAUUACGACUG | -4.23 ± 0.22 | -2.44 ± 0.19
32 | GUCCAGCAAUAUUACGCUUG | -1.57 ± 0.079 | -1.31 ± 0.09
33 | CUCCAGCAAUAUUACGACUA | -2.47 ± 0.21 | -2.53 ± 0.29
34 | CGUCAGCAAUAUUACGGACC | -0.189 ± 0.17 | 0.292 ± 0.17
35 | UCGUAGCAAUAUUACGUGGC | -4.04 ± 0.16 | -2.22 ± 0.12
36 | CAUUAGCAAUAUUACGGAUG | -3.67 ± 0.39 | -3.03 ± 0.25
37 | GGAAAGCAAUAUUACGGAUG | -2.54 ± 0.17 | -2.18 ± 0.21
38 | AAGGAGCAAUAUUACGGUAC | -3.2 ± 0.47 | -2.19 ± 0.4
39 | ACUUAGCAAUAUUACGCCAA | -3.19 ± 0.29 | -2.17 ± 0.28
40 | AGCAAGCAAUAUUACGAGCG | 0.283 ± 0.061 | -0.223 ± 0.076
41 | GUGCAGCAAUAUUACGGUUA | -0.723 ± 0.092 | -0.164 ± 0.089
42 | UAGAAGCAAUAUUACGGAGU | -3.56 ± 0.15 | -2.1 ± 0.13
43 | UAGAAGCAAUAUUACGAGUA | -1.31 ± 0.096 | -0.33 ± 0.12
44 | CUUUAGCAAUAUUACGAAUC | -1.01 ± 0.45 | –
45 | CAUCAGCAAUAUUACGGCUC | -1.91 ± 0.1 | -1.1 ± 0.12
46 | GUCAAGCAAUAUUACGAUUA | -1.04 ± 0.1 | -0.259 ± 0.068
47 | AGCGAGCAAUAUUACGCAGC | -4.05 ± 0.46 | –
48 | UACAAGCAAUAUUACGCAAA | -2.24 ± 0.14 | -1.51 ± 0.14
49 | AUGCAGCAAUAUUACGUCGU | -0.894 ± 0.11 | -1.66 ± 0.13
50 | UUGCAGCAAUAUUACGUCAU | -2.15 ± 0.098 | -1.13 ± 0.1
51 | AACGAGCAAUAUUACGCCGC | -2.6 ± 0.24 | -3.58 ± 0.39
52 | GCGUAGCAAUAUUACGGGUA | -1.56 ± 0.11 | -0.91 ± 0.098

Row | Sequence | self-splicing fitness (ln) (30 °C) | self-splicing fitness (ln) (37 °C)
53 | AAACAGCAAUAUUACGCAGG | -2.41 ± 0.15 | -2.33 ± 0.15
54 | ACUUAGCAAUAUUACGGAAC | -3.24 ± 0.19 | -1.07 ± 0.34
55 | GUGGAGCAAUAUUACGAUAC | -1.47 ± 0.26 | -0.631 ± 0.42
56 | AACAAGCAAUAUUACGUGUC | -4.91 ± 0.21 | -2.96 ± 0.095
57 | UUAUAGCAAUAUUACGUGUA | -2.46 ± 0.18 | -1.73 ± 0.16
58 | GAAAAGCAAUAUUACGUGAU | -2.38 ± 0.087 | -1.9 ± 0.11
59 | GUCGAGCAAUAUUACGAAGG | -3.61 ± 0.47 | –
60 | ACGGAGCAAUAUUACGCGUG | -2.24 ± 0.12 | -0.943 ± 0.11
61 | AGUUAGCAAUAUUACGAGAC | -3.11 ± 0.26 | -2.02 ± 0.27
62 | CGCAAGCAAUAUUACGAGUG | -1.99 ± 0.057 | -1.72 ± 0.084
63 | AGCGAGCAAUAUUACGAAGC | -3.45 ± 0.43 | -2.17 ± 0.25
64 | AGCCAGCAAUAUUACGUAAC | -2.67 ± 0.1 | -2.04 ± 0.2
65 | CAAAAGCAAUAUUACGGCUU | -3.44 ± 0.11 | -2.39 ± 0.11
66 | GAAGAGCAAUAUUACGUGAC | -3.21 ± 0.22 | -1.72 ± 0.18
67 | AGGAAGCAAUAUUACGAUUA | -1.47 ± 0.08 | -1.21 ± 0.069
68 | AUAUAGCAAUAUUACGUACA | -1.07 ± 0.14 | -0.785 ± 0.16
69 | UGCCAGCAAUAUUACGCAGG | -4.43 ± 0.33 | -3.14 ± 0.28
70 | CAUUAGCAAUAUUACGGACA | -2.45 ± 0.22 | -1.22 ± 0.18
71 | GGCUAGCAAUAUUACGUACU | -0.354 ± 0.077 | 0.312 ± 0.11
72 | CCUUAGCAAUAUUACGCGAG | -4.2 ± 0.31 | -3.27 ± 0.28
73 | AACGAGCAAUAUUACGCAAG | -3.43 ± 0.19 | -2.19 ± 0.19
74 | CGGUAGCAAUAUUACGGAAC | – | -2.37 ± 0.36
75 | ACCCAGCAAUAUUACGCAGC | -1.41 ± 0.068 | -0.445 ± 0.068
76 | CACAAGCAAUAUUACGAUCU | -2.56 ± 0.09 | -2.85 ± 0.13
77 | UAAGAGCAAUAUUACGUCGA | -3.95 ± 0.3 | -1.74 ± 0.17

Source: the supplement of paper PMC7877785
